# From article PMC8069351, “Characterization of Two Unique Cold-Active Lipases Derived from a Novel Deep-Sea Cold Seep Bacterium” (Microorganisms, 2021)
# B1: Lipase 2 (Pseudomonas sp. gcc21) (protein)
# chain: MNSPLLKLSTLTLGLVFAAGAYAFNPGNPGGPSNPGGDQPVESGFPSVGNFEASGSFATTNASEGPSCTIYRPRTLGENDLKHPIILWGNGTGTSPSGYSALLNHWASHGFVVAAANTTNAGSGAEMLACLDYLAEQNGRGSGTYAGKLNLDAVGSSGHSQGGGGSIMAGQDSRITATAPFQPYTLGLGHRRASQSNQNGPMFLMTGSADTLASSEANGRPVFNNANVPVFWGELQGASHFVPAFNGGGYRGPSTAWYRYHLMGDQNAESTFYGADCKLCTSSEWKVQKKGIQ
# Substrate: CCCCCCCCCCCCCCCC(=O)Oc1ccc([N+](=O)[O-])cc1
# Assay: purified protein
# Assay type: biochemical, Pseudomonas sp. gcc21
# Conditions: 50 mM Tris-HCl pH 8.0, 4 °C, substrate 0.2-1.2 mM, text b44 swaps the two lipases' Km
protein,measurement,value
B1,Km,20 µM
same,kcat,2.7 s⁻¹
same,kcat/Km,140000 M⁻¹ s⁻¹
